Consider one molecule from patent US20230310629A1, “BISPECIFIC ANTIBODY-DRUG CONJUGATES TARGETING EGFR AND MUC1 AND USES THEREOF” (Merck Patent GmbH, priority 2020, published 2023).

One data set relates to WISH cells. Nature of the data set: WISH cell binding (Example 1). Set-up: species or system human; unit not given here.
The target of a further data set is human MUC1-VNTR peptide (Homo sapiens, UniProt P15941). Nature of the data set: Biacore binding to human MUC1-VNTR peptide (Example 1). The protocol: An anti-MUC1 scFv (H02) was developed by affinity maturation of anti-MUC1 antibody HT186-D11 (see Thie H. et al. PLoS One […], 6, 1, e15921) using ribosome display selection. For the scFv library, CDRs H1, H2, H3 and L3 (SEQ ID NOs: 4, 5, 6, and 9) were targeted. scFv ribosome display selections were then performed against a biotinylated synthetic VNTR peptide of MUC ([…]-biotin) (SEQ ID NO:10).
On the technique in general: In SPR one partner is held on a chip, and binding of the other changes the refractive index at the surface.

Where [1] appears, read: human MUC1-VNTR, second data set.

B1: 1993-H02: anti-MUC1 antibody variant from affinity maturation of HT186-D11, with HT186-D11 light chain; developed as scFv (antibody, V domains shown)
VH: QMQLVQSEAELKKPGASVKVSCKASGYSFTSHFMHWVRQAPGQGLEWMGWIDPVTGGTKYAQNFQGWVTMTRDTSIRTAYLELSRLRSDDTAMYYCAREARADRGQFDKWGQGTLVTVAS
VL: QSVLTQPPSVSVAPGKTARITCGGNNIGSKSVHWYQQKPGQAPALVIYYGSNRPSGIPERFSGSNSGNTATLTISRVEAGDEADYYCQVWDSSSDWVFGGGTKLTVL
Regarding B1, the “Turbidity A600” value was 0.15. In the data set on WISH cells, this molecule returned a Bmax of 128920. The kd in the data set with human MUC1-VNTR peptide (human MUC1-VNTR peptide, first data set) is listed as 2.14E−04 ½. In addition, in the data set with human MUC1-VNTR peptide (setting [1]), the ka1 worked out at 126000 M⁻¹ s⁻¹ and the kd1 stood at 0.0017 s⁻¹.
